Earlier results as cited in PMC2683804.
pKd: −log10 of the molar value.

Key:
[1] = molecular target: amyloid-β 1-40 1-40 (Homo sapiens) (UniProt P05067)
[2] = molecular target: amyloid-β 1-42 1-42 (Homo sapiens) (UniProt P05067)

pKd [1]: 5.03
pKd [2]: 4.98
Substance: human serum albumin (from UniProt P02768)
